Data on one molecule can be found in publication PMC7368063, “An FGF15/19-TFEB regulatory loop controls hepatic cholesterol and bile acid homeostasis”.

This data set addresses TFEB (rhTFEB) (human, UniProt P19484 1-476). The data set can be described thus: EMSA; EMSA kit with SYBR green (Thermo Fisher), 5 pmol annealed probe, 200 ng rhTFEB; buffer, salt, pH and temperature not stated. The settings on record: protein: commercial; chain copies: 2. For orientation: A gel shift assay detects complexes by their altered migration in electrophoresis.

Sequence of TFEB (rhTFEB) (P19484 whole entry): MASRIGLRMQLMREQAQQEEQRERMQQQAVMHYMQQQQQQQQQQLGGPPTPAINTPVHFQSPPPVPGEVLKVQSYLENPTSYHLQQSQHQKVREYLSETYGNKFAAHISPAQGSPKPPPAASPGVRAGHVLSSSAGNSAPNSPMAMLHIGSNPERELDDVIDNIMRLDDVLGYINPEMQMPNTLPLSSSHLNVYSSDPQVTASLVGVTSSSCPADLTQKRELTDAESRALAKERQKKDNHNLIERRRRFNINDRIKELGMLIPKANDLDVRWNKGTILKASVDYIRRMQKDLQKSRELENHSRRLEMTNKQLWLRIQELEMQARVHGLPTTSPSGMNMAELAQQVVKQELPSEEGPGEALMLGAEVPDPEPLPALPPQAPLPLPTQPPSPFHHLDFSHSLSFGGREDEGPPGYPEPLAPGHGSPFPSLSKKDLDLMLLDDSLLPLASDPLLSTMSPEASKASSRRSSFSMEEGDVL

B1: NPC2 CLEAR probe (positive control) (dsDNA)
DNA 1: GCGCGGGCGGGCCTCAGCTGTGGTTACTGGTGACAGGTCGCCTGA
DNA 2: TCAGGCGACCTGTCACCAGTAACCACAGCTGAGGCCCGCCCGCGC
B1: the binding result is given as “binds”.
